Source: article PMC7469880

Molecular target: FIRΔexon2-FLAG (splice variant of FIR lacking exon 2, FLAG-tagged) (human)
Assay: co-IP

SAP155 (subunit of splicing factor 3b), endogenous in HeLa (from UniProt O75533 1-1304) (natural protein)
amount detected relative to the FIR–FLAG complex (1.0): 0.1

SAP130 (subunit of splicing factor 3b), endogenous in HeLa (from UniProt Q15393 1-1217) (natural protein)
amount detected relative to the FIR–FLAG complex (1.0): 0.35
